B1: Splicing factor rtf2 (Schizosaccharomyces pombe (strain ATCC 38366 / 972)), Q10154 (parent)
chain: MGNDGGSLPTRNELVKEPGKVPPLDIDFKRSVKSSQFSQCAITDEPLYPPIVSCGLGKLYNKASILQMLLDRSSVPKSPSHIKSLKDVVQLQVELDDSGKVLWLCPITRHVMSDTYQFAYIVPCGHVFEYSALKQFGEKMCFQCNQVYEEKDVIPINPNAEQLKTLSKRLLDLALSEKTHSLNKASKKSNKNGDKKRKHVSKSNSKHAKHELRTNRMLDGENVKSETSVTDMERVKRVKI
partner: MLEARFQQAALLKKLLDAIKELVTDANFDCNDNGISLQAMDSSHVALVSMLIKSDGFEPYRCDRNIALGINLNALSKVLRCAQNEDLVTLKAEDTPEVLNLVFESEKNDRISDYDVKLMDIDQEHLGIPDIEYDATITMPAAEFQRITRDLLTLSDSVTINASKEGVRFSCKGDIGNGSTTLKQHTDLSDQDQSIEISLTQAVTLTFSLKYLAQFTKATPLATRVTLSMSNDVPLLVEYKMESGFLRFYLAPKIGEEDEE

Variants of: B1
Conditions: with pcna_schpo pcn1, Q03392
In the case of C141G, the “effect of a mutation on the interaction” value is reported as “disrupting interaction”.
